# Substitutions are numbered along the chain they refer to.
# B1: 2p834 anti-Claudin 18.2/CD40 bispecific antibody (bispecific antibody, part only; not given: Claudin 18.2 Fab, constant regions, linker, V domains shown, not shown: another chain or arm of the molecule; a dimerising Fc or GST; small tags and cut ends)
# VHH: QSQLVESGGGLVQPGGSLRLSCAASGFAFRRYTMSWVRQAPGKGLEWVSTITHNGSITTYAESAQGRFTISRDNAKNTLYLQMNSLKPEDTAVYYCAQGGGSNYYRESWGQGTQVTVSS
# B2: 42p155 chimeric monospecific antibody (antibody, V domains shown)
# VH: B1 VHH with Q1P, R31S, S56A
# notes: VHH-chimeric monospecific antibody (cAb), detected with anti-human IgG; also called 42pl55; not shown: human constant part (Fc) of the chimeric VHH antibody
# B3: 2p1294 chimeric monospecific antibody (antibody, V domains shown)
# VH: B1 VHH with S2V, A28S, T50A, T52S, H53D, S56A, A61T
# notes: VHH-chimeric monospecific antibody (cAb), detected with anti-human IgG
# B4: 2p957 chimeric monospecific antibody (antibody, V domains shown)
# VH: PVQLVESGGGLVQPGGSLRLSCAASGFSFRNYIMSWVRQAPGKGLEWLSSITNSGGITSYTESVKGRFTISRDNAKNTLYLQMNSLKPEDTAVYYCAQGGSDNYYRGSWGQGTQVTVSS
# notes: as for B3
# B5: 42p495 chimeric monospecific antibody (antibody, V domains shown)
# VH: PVQLVESGGNLVQPGGSLRLSCVAPGFTSRNSAMSWVRQAPGKGLEWVSTIYSGKSNTDYADSVKGRFTISTDNAKNTLYLHMNKLKSEDTAVYYCAKGAASDWYVPRDYWGQGTQVTVSS
# notes: as for B3
# Assays:
# [1] = target: T1, human CD40 on the cell surface (human, UniProt P25942 21-277); test: flow cytometry on human monocyte-derived dendritic cells (CD11c+ gate), PE anti-human IgG Fc, MFI
# T1 construct: whole, on cells; also called cell surface CD40; Jurkat-CD40 cells
# human CD40-His protein [2] = target: T2, human CD40-His protein (human, UniProt P25942 21-193); test: ELISA, coated human CD40-His
# T2 construct: Recombinant His-tagged protein; also called human CD40-his tag; recombinant CD40 protein; not shown: His tag
# Procedure: (§1) Briefly, microtiter plates were coated with human CD40-His protein at 1.0 μg/ml in PBS, 100 μl/well at 4° C. overnight, then blocked with 150 μl/well of 1% BSA. Ten-fold dilutions of 42p155, 2p834, 2p931, 42p655, 2p1294, 2p957, 42p495, 3p78, 2p415, 2p442, 2p551, 2p80 and 2p1130 antibodies starting from 100 nM were added to each well and incubated for 1 hour at RT. The plates were washed with PBS/Tween and then incubated with Anti-Human IgG (H&L) (GOAT) Antibody Peroxidase Conjugated for 30 mins at RT. After washing, the plates were developed with TMB substrate and analyzed by spectrophotometer at OD 450 nm.
# [3] = target: T3, cynomolgus CD40-His protein (cynomolgus, UniProt G7PG38 21-193); test: ELISA, coated cynomolgus CD40-His
# T3 construct: Recombinant His-tagged protein; also called cyno CD40 antigen; not shown: His tag
# Procedure: as §1, with “The binding affinity of these clones to cynomolgus CD40 was also tested. Microtiter” for “Briefly, microtiter”, “cynomolgus” for “human”, “4 °C” for “4° C.”, “nm. As shown in FIG. 1B and Table 2, all these clones bound to cynomolgus CD40 at high activity, showing good cross-reactivity between human and cynomolgus CD40 proteins.” for “nm.”
# human CD40-His protein [4] = target: T2, human CD40-His protein; test: SPR (Biacore T200), antibody captured on Protein A
# Procedure: The binding of the humanized 42pl55 and 2p442 antibodies to recombinant human CD40 protein (human CD40-his tag) was tested by Biacore and Octet, respectively, using a capture method.
# For humanized 42pl55 monoclonal antibodies, 42p155z2 and 42p155z3 were captured using Protein A chip. A serial dilution of human CD40-his tag protein was injected over captured antibody for 3 mins at a flow rate of 10 μl/min. The antigen was allowed to dissociate for 6 min. All the experiments were carried out on a Biacore T200. Data analysis was carried out using Biacore T200 evaluation software.
# [5] = target: T1, human CD40 on the cell surface; test: flow cytometry on Jurkat cells overexpressing human CD40, PE anti-human IgG, MFI
# Procedure: To evaluate their binding affinity to cell surface CD40, chimeric anti-CD40 monospecific antibodies were tested in Jurkat cell lines that overexpressed CD40 by FACS. A total number of 1×10⁵ Jurkat-CD40 cells in each well were incubated with 10-fold serially diluted antibodies starting from 100 nM for 30 minutes at 4° C. in FACS buffer. After wash by FACS buffer, PE conjugated-anti-human IgG antibody was added to each well and incubated at 4 °C for 30 minutes. After wash, MFI of PE was evaluated by MACSQuant Analyzer 16.
# T1 sequence (P25942 21-277): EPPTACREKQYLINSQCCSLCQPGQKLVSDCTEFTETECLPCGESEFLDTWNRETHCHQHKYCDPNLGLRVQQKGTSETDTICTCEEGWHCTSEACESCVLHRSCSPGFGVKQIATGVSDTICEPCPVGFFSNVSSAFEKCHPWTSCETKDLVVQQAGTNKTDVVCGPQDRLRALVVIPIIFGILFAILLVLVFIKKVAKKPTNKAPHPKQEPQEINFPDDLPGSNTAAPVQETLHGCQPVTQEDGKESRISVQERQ
# T2 sequence (P25942 21-193 limits assumed): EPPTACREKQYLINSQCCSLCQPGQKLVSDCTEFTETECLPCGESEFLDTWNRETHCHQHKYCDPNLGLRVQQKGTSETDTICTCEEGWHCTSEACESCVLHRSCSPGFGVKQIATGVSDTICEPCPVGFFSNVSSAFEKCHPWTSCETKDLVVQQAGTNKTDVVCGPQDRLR
binder,measurement,setting,value
B1,EC50 (read off the curve),[1],1 nM
B2,EC50,human CD40-His protein [2],1.73 nM
same,EC50,[3],0.9 nM
same,Kd,human CD40-His protein [4],86.9 nM
same,koff,human CD40-His protein [4],0.0451 s⁻¹
same,kon,human CD40-His protein [4],519000 M⁻¹ s⁻¹
same,EC50 (read off the curve),[5],~0.3 nM
B3,EC50 (read off the curve),[5],~0.3 nM
B4,EC50 (read off the curve),[5],~3 nM
B5,EC50 (read off the curve),[5],~2 nM
